This note sets out measurements from patent US20110059095A1 (Regeneron, published 2011).

Where no end group is shown, it is not given here. The star is where a group is joined. Biotin = O=C1N[C@H]2[C@H](CS[C@H]2CCCCC(=O)*)N1

In test [1] the target is T1, Peptide A (human PAR-2), unbiotinylated (Human).
T1 construct: also called Peptide A No Biotin
T1 peptide: GTNRSSKGRSLIGKVDGT
As to the kind of experiment: peptide ELISA. On the procedure: (§1) Anti-PAR-2 antibodies were tested for their ability to bind to the PAR-2 peptides. Various PAR-2 Peptides (Table 3) were coated onto 96-well plates at a concentration of 2 μg/ml and incubated overnight followed by blocking in a suitable blocking agent for one hour. […] Purified anti-PAR-2 antibodies were added to the plate coated with PAR-2 peptides to a final concentration ranging from 0.2 to 2.0 μg/ml and incubated for one hour at room temperature. Detection of bound antibodies was determined with Horse-Radish Peroxidase (HRP) conjugated anti-mouse or human IgG (Jackson Immuno Research Lab, West Grove, Pa.) and developed by standard colorimetric response using tetramethylbenzidine (TMB) substrate. Absorbance was read at OD₄₅₀ for 0.1 second.

Test [2] deals with T2, Peptide B (human PAR-2), N-terminal biotinylated (Human).
T2 construct: also called Peptide B N-Term
T2 peptide: Biotin-GGGGSSLIGKVDGTSHVTG
As to the kind of experiment: peptide ELISA. On the procedure: as §1
On the technique in general: In an ELISA, binding on a coated surface is turned into a signal by an enzyme label.

Test [3] concerns the target T3, Peptide A (human PAR-2), N-terminal biotinylated (Human, N-terminal biotin via G4S linker).
T3 construct: also called Peptide A N-Term
T3 peptide: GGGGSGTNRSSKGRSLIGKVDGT
As to the kind of experiment: peptide ELISA. How it is done:
as §1

The target of test [4] is T4, Peptide C (human PAR-2), N-terminal biotinylated (Human).
T4 construct: also called Peptide C N-Term
T4 peptide: Biotin-GGGGSSLIGKV
As to the kind of experiment: peptide ELISA. On the procedure: as §1

Test [5] has as its target T1, Peptide A (human PAR-2), unbiotinylated. As to the kind of experiment: SPR, antibody captured, steady state. On the procedure: (§2) Equilibrium dissociation constants (KD values) for antigen binding to selected purified PAR-2 antibodies were determined by surface kinetics using a real-time surface plasmon resonance biosensor assay. Antibody was captured on either a rabbit anti-mouse IgG polyclonal antibody (GE Healthcare, Piscataway, N.J.) surface or a goat anti-human IgG polyclonal antibody (Jackson Immuno Research Lab, West Grove, Pa.) surface created through direct amine chemical coupling to a BIACORE™ CM5 sensor chip to form a captured antibody surface. […] Antigen-antibody binding and dissociation were monitored in real time at room temperature. Kinetic analysis was performed to calculate KD and half-life of antigen/antibody complex dissociation (Table 10). For those antibodies where no T_{1/2} value is shown, steady state analysis was used to calculate the KD value. NB: no binding observed under current experimental conditions. ND: not determined.
(Surface plasmon resonance follows binding to a sensor surface in real time, without labels.)

Test [6] concerns the target T5, Peptide B (human PAR-2), C-terminal biotinylated (Human, not fully specified).
T5 construct: also called Peptide B C-Term
T5 peptide: SLIGKVDGTSHVTGGGGGS-biotin
Kind of test: peptide ELISA. How it is done: as §1

The target in test [7] is T6, Peptide C (human PAR-2), C-terminal biotinylated (Human).
T6 construct: also called Peptide C C-Term
T6 peptide: SLIGKVGGGGS-biotin
As to the kind of experiment: peptide ELISA. On the procedure: as §1

Test [8] deals with T7, Peptide A (human PAR-2), C-terminal biotinylated (Human, C-terminal biotin via G4S linker).
T7 construct: also called Peptide A C-Term
As to the kind of experiment: peptide ELISA. How it is done:
as §1

Test [9] addresses T8, Peptide B (human PAR-2), unbiotinylated (Human).
T8 construct: also called Peptide B No Biotin
T8 peptide: SLIGKVDGTSHVTG
Kind of test: peptide ELISA. How it is done:
as §1

Another test addresses T9, full length human PAR-2 (human, UniProt P55085 26-397).
T9 construct: overexpressed on HEK293-derived 293/D9 cells; also called 293/D9/hPAR-2rec cells
Kind of test: cell ELISA, 10 ug/ml antibody. The text has this: HEK293 cells were transfected with an NF-κB-luciferase-IRES-eGFP reporter plasmid. […] A clonal cell line, named D9, having low background levels of luciferase activity and high levels of eGFP when induced with IL-1β was made by a series of successive sorts of cell populations using flow cytometry. The 293/D9 cell line was then separately transfected with human PAR-2 or mouse PAR-2 to create the stable cell lines 293/D9/h PAR-2rec and 293/D9/m PAR-2rec, respectively.
Binding of anti-PAR-2 antibodies to 293/D9/hPAR-2rec cells was determined by ELISA. 293/D9 and 293/D9/hPAR-2rec cells were plated at a density of 5×10⁴ cells/well in media and incubated overnight at 37° C. and 5% CO₂. Purified antibody was added to the cells to a final concentration of 10 μg/ml and incubated at room temperature for one hour. Cells were then fixed and washed before detection of bound antibodies with HRP conjugated anti-mouse IgG and developed by standard colorimetric response using TMB substrate. Absorbance was read at OD₄₅₀ for 0.1 second.

The target of test [10] is T1, Peptide A (human PAR-2), unbiotinylated. Kind of test: SPR, antibody captured. How it is done:
as §2

In test [11] the target is T8, Peptide B (human PAR-2), unbiotinylated. Kind of test: SPR, antibody captured. On the procedure:
as §2

T9 sequence (P55085 26-397 G138A limits assumed): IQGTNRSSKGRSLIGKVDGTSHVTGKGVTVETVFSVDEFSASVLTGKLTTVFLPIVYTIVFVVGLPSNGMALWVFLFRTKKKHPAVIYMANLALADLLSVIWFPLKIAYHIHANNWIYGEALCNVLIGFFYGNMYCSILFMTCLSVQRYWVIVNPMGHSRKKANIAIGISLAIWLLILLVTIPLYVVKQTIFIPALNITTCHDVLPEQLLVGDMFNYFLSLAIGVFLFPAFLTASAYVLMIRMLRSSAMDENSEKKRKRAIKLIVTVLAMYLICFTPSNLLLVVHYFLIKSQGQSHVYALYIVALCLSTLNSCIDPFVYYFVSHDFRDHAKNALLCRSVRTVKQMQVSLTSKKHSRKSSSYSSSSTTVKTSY

B1: H1M592N (antibody, V domains shown)
VH: EVQLVESGGGLVQPGRSLRLSCAASGFTFDDYAMHWVRQAPGKGLEWVSGISWNSGSIGYADSVKGRFTISRDNAKNSLYLQMNSLRAEDTALYYCAKDRFPPYKYNSGGFSDAFEIWGQGTMVTVSS
VL: not shown
notes: chimeric: human variable, mouse constant domains
Regarding B1, the OD450 in test [1] was 1 to 4 od; in [2], 0.5 to 0.99 od; in test [3], 1 to 4 od; in test [4] it was 1 to 4 od. The molecule further displayed a Kd in test [5] of 2100 nM.

B2: H1M613N (antibody, V domains shown)
VH: EVQLVESGGGLVQPGRSLRLSCAASGFTFDDYAMHWVRQAPGKGLEWVSGISWNSGSIGYADSVKGRFTISRDNAKNSLYLQMNSLRAEDTALYYCAKDRFPPYKYNSGGFSDAFEIWGQGTMVTVSS
VL: not shown
notes: as for B1
As to B2, the OD450 is 1 to 4 od in [1], 0.5 to 0.99 od in [2], 1 to 4 od in test [3] and 1 to 4 od in [4]. In test [5], this molecule came in with a Kd of 2100 nM.

B3: H3M620N (antibody, V domains shown)
VH: EVQLVESGGNVVRPGGSLRLSCAASGFTFDDYGMTWVRQVPGKGLEWVSGINWNGGSTDYADSVKGRFTISRDNAKNSLYLQMNSLRAEDTALYYCARDKGFYGMDVWGQGTTVTVSS
VL: DIVMTQSPDSLAVSLGERATINCKSSQNPLYNSNKKKYLAWYQQKPGQPPKLVIYWASTRESGVPDRFSGSGSGTDFTLTITSLQAEDVAVYYCQQYYSTPYTFGQGTKLEIK
notes: as for B1
In the case of B3, the OD450 was 1 to 4 od in [1]; 0 to 0.09 od in [2]; 0 to 0.09 od in test [6]; 0 to 0.09 od in [7]; 1 to 4 od in test [8]; 0.5 to 0.99 od in test [3]. In addition, the OD450 in test [9] and in [4] was 0 to 0.09 od throughout.

B4: H1M612N (antibody, V domains shown)
VH: EVQLVESGGGLVQPGRSLRLSCAASGFTFDDYAMHWVRQAPGKGLEWVSGITWNSGNMAYADSVKGRFTISRDNAKNSLYLQMNSLRAEDTALYYCAKENWAFDYWGQGTRVIVSS
VL: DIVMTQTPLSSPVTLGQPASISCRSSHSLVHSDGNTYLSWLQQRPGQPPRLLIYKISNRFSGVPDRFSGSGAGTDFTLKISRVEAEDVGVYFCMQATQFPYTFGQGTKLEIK
notes: as for B1
In the case of B4, the OD450 lay within 1 to 4 od in test [1]; 0 to 0.09 od in test [2]; 0 to 0.09 od in test [6]; 0 to 0.09 od in test [7]; 1 to 4 od in [8]; 1 to 4 od in [3]. Moreover, the OD450 in [9] and in test [4] was 0 to 0.09 od throughout. The Kd in test [5] was 180 nM.

B5: H2M609N (antibody, V domains shown)
VH: EVQLVESGGGLVQPGRSLRLSCAASGFTFDDYAMHWVRQAPGKGLEWVSGISWNSGSKGFADSVKGRFTISRDNAKNSLYLQMNSLRVEDTALYYCAKENWSFDYWGQGTLVTVSS
VL: DIVMTQTPLSSPVTLGQPASISCRSSQSLVHSDGNIYLSWLQQRPGQPPRLLIYKISNRFSGVPDRFSGSGAGTDFTLKISRVEAEDVGIYYCMQASHFPYTFGQGTKLEIK
notes: as for B1
On to B5, for which the OD450 in test [1] fell in the range of 1 to 4 od; in test [2], 0 to 0.09 od; in test [6] it was 0 to 0.09 od; in test [7], 0 to 0.09 od; in [8] it was 1 to 4 od; in test [3] it was 1 to 4 od. For the same molecule, the OD450 in [9] and in [4] was 0 to 0.09 od each time.

B6: H1M619N (antibody, V domains shown)
VH: EVQLVESGGGLVQAGRSLRLSCAASGFTFDDYAMHWVRQAPGKGLEWVSGISWNSGSRGYADSVKGRFTISRDNAKNSLHLQMYSLRAEDTALYYCAKENWSFDYWGQGTLVTVSS
VL: DIVMTQTPLSSPVTLGQPASISCRSSQSLVHSDGNTYLSWLQQRPGQPPRLLIYKISYRFSGVPDRFSGSGAGTDFTLKISRVATEDVGVYYCMQATQLPYTFGQGTKLEIK
notes: as for B1
For the molecule B6, the OD450 in [1] fell in the range of 1 to 4 od; in [2], 0 to 0.09 od; in test [6], 0 to 0.09 od; in [7] it was 0 to 0.09 od; in [8], 1 to 4 od; in [3] it was 1 to 4 od. For the same molecule, the OD450 in [9] and in test [4] was 0 to 0.09 od in each case. Binding in test [5] was put at a Kd of 164 nM.

B7: H2M614N (antibody, V domains shown)
VH: EVQLVESGGGLVQPGRSLRLSCAASGFTFDDYAMHWVRQVPGKGLEWVSGITWNSGSIDYADSVKGRFTISRDNAKNSLYLQMNSLRAEDTAFYYCVKEDEAFDYWGQGTLVTVSS
VL: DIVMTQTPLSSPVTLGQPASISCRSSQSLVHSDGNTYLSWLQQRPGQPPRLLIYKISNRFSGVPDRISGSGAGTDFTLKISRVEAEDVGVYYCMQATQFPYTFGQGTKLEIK
notes: as for B1
B7: the OD450 in test [1] lay in the range of 0.5 to 0.99 od; in test [2], 0 to 0.09 od; in [6] it was 0 to 0.09 od; in [7] it was 0 to 0.09 od; in test [8], 1 to 4 od; in test [3], 1 to 4 od. Moreover, the OD450 in test [9] and in [4] was 0 to 0.09 od each time. The molecule also registered an equilibrium dissociation constant (Kd) in test [5] of 470 nM.

B8: H1M615N (antibody, V domains shown)
VH: EVQLVESGGGVVQPGRSLRLSCAASGFTFDDYTMHWVRQVPGKDLKWVSGITWNGGRKAYADSVKGRFTISRDNAKNSLFLQMNSLRAEDTAFYYCAKEDEAFDYWGQGTLVTVSS
VL: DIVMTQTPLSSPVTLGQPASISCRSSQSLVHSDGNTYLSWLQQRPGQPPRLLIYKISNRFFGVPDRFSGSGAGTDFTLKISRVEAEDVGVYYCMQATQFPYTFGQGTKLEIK
notes: as for B1
On to B8, for which the “A450 ratio (293/D9/hPAR-2rec to 293/D9 cells)” value with full length human PAR-2 was 2.18. Further, the OD450 is 1 to 4 od in [1]; 0 to 0.09 od in test [2]; 0 to 0.09 od in test [6]; 0 to 0.09 od in test [7]; 1 to 4 od in [8]; 1 to 4 od in [3]. The OD450 in test [9] and in test [4] was 0 to 0.09 od throughout. The dissociation constant Kd in [5] came out at 162 nM.

B9: H1M595N (antibody, V domains shown)
VH: EVQLVESGGGLVQPGGSLRLSCAASGFTFSSYDMHWVRQVTGKGLEWVSVIGTVGDTYYPGSLKGRFTISRENAKNSLYLQMNTLRAGDTAVYYCARTGAAAHSYYYGMDVWGQGTMVTVSS
VL: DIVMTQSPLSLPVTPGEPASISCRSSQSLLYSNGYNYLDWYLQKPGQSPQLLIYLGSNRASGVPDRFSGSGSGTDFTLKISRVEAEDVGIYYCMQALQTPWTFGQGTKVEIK
notes: as for B1
In the case of B9, the OD450 in test [1] lay within 1 to 4 od; in [2], 0 to 0.09 od; in test [6], 0 to 0.09 od; in test [8], 1 to 4 od; in [3], 1 to 4 od; in [9] it was 0 to 0.09 od. The same molecule gave an OD450 in [4] of 0.5 to 0.99 od. In addition, binding in test [5] was put at a Kd of 510 nM.

B10: H2M611N (antibody, V domains shown)
VH: EVQLLESGGGLVQPGGSLRLSCAASGFTFSSYAMTWVRQAPGKGLYWVSAISGSGGSAYYADSVKGRFTISRDNSKNTLYLQMNSLRAEDTAVYYCAKEGDSGYDLDYWGRGTLVTVSS
VL: DIQMTQSPSSLSASVGDRVTITCRARQGISNYLAWLQQKPGKAPKSLIYAASSLQSGVPSKFSGSGSGTDFTLTISSLQPEDFATYYCQQYKSSPLTFGGGTKVEIK
notes: as for B1
For the molecule B10, the OD450 in test [1] lay within 1 to 4 od; in test [2], 1 to 4 od; in test [6] it was 1 to 4 od; in [7], 0 to 0.09 od; in test [8], 1 to 4 od; in test [3] it was 1 to 4 od. Moreover, the results for the OD450 in test [9] and in [4] were 1 to 4 od and 0 to 0.09 od, respectively. Besides, the Kd worked out at 72.8 nM in [10] and 1090 nM in [11]. Besides, the T1/2 in test [10] came out at 4.1 min; in test [11], 1.2 min.

As usually defined, the Kd is a measure of binding affinity in units of concentration. A lower Kd goes with a tighter complex.
